We go through 3 proteins from article PMC3835790, “Statistical Experimental Design Guided Optimization of a One-Pot Biphasic Multienzyme Total Synthesis of Amorpha-4,11-diene” (PLoS ONE, 2013).

Common to all, as to details: 100 mM Tris/HCl pH 7.4, 30°C
Substrate in data set [1]: C[C@@](O)(CCOP(=O)(O)O)CC(=O)O
Nature of the data set: initial rates, UPLC-(TOF)MS, double-reciprocal plot. Type of data set: biochemical, Saccharomyces cerevisiae. The text has this:
initial rates, UPLC-(TOF)MS, double-reciprocal plot on phosphomevalonate kinase (Erg8)

Substrate in the data set “purified protein”: CC(O)(CCO)CC(=O)O
Nature of the data set: purified protein.

Substrate in data set [2]: C[C@@](O)(CCOP(=O)(O)OP(=O)(O)O)CC(=O)O
Description: initial rates, UPLC-(TOF)MS, double-reciprocal plot. Type of data set: biochemical, Saccharomyces cerevisiae. The source says:
initial rates, UPLC-(TOF)MS, double-reciprocal plot on diphosphomevalonate decarboxylase (Erg19)

B1: phosphomevalonate kinase (Erg8) (Saccharomyces cerevisiae S288C) (protein)
chain: MSELRAFSAPGKALLAGGYLVLDTKYEAFVVGLSARMHAVAHPYGSLQGSDKFEVRVKSKQFKDGEWLYHISPKSGFIPVSIGGSKNPFIEKVIANVFSYFKPNMDDYCNRNLFVIDIFSDDAYHSQEDSVTEHRGNRRLSFHSHRIEEVPKTGLGSSAGLVTVLTTALASFFVSDLENNVDKYREVIHNLAQVAHCQAQGKIGSGFDVAAAAYGSIRYRRFPPALISNLPDIGSATYGSKLAHLVDEEDWNITIKSNHLPSGLTLWMGDIKNGSETVKLVQKVKNWYDSHMPESLKIYTELDHANSRFMDGLSKLDRLHETHDDYSDQIFESLERNDCTCQKYPEITEVRDAVATIRRSFRKITKESGADIEPPVQTSLLDDCQTLKGVLTCLIPGAGGYDAIAVITKQDVDLRAQTANDKRFSKVQWLDVTQADWGVRKEKDPETYLDK
notes: 6xHis-tagged, modified pET-11a, expressed in E. coli, Ni-NTA purified; calculated mass 51520
As for B1, in data set [1], the Km stood at 780 ± 280 µM and the kcat is 22 ± 7 s⁻¹.

B2: mevalonate kinase (Erg12) (Saccharomyces cerevisiae S288C) (protein)
chain: MSLPFLTSAPGKVIIFGEHSAVYNKPAVAASVSALRTYLLISESSAPDTIELDFPDISFNHKWSINDFNAITEDQVNSQKLAKAQQATDGLSQELVSLLDPLLAQLSESFHYHAAFCFLYMFVCLCPHAKNIKFSLKSTLPIGAGLGSSASISVSLALAMAYLGGLIGSNDLEKLSENDKHIVNQWAFIGEKCIHGTPSGIDNAVATYGNALLFEKDSHNGTINTNNFKFLDDFPAIPMILTYTRIPRSTKDLVARVRVLVTEKFPEVMKPILDAMGECALQGLEIMTKLSKCKGTDDEAVETNNELYEQLLELIRINHGLLVSIGVSHPGLELIKNLSDDLRIGSTKLTGAGGGGCSLTLLRRDITQEQIDSFKKKLQDDFSYETFETDLGGTGCCLLSAKNLNKDLKIKSLVFQLFENKTTTKQQIDDLLLPGNTNLPWTS
As for B2, in the data set “purified protein”, the Km worked out at 460 ± 153 µM and the kcat was determined as 5.5 s⁻¹.

B3: diphosphomevalonate decarboxylase (Erg19) (Saccharomyces cerevisiae S288C) (protein)
chain: MTVYTASVTAPVNIATLKYWGKRDTKLNLPTNSSISVTLSQDDLRTLTSAATAPEFERDTLWLNGEPHSIDNERTQNCLRDLRQLRKEMESKDASLPTLSQWKLHIVSENNFPTAAGLASSAAGFAALVSAIAKLYQLPQSTSEISRIARKGSGSACRSLFGGYVAWEMGKAEDGHDSMAVQIADSSDWPQMKACVLVVSDIKKDVSSTQGMQLTVATSELFKERIEHVVPKRFEVMRKAIVEKDFATFAKETMMDSNSFHATCLDSFPPIFYMNDTSKRIISWCHTINQFYGETIVAYTFDAGPNAVLYYLAENESKLFAFIYKLFGSVPGWDKKFTTEQLEAFNHQFESSNFTARELDLELQKDVARVILTQVGSGPQETNESLIDAKTGLPKE
notes: 6xHis-tagged, modified pET-11a, expressed in E. coli, Ni-NTA purified; calculated mass 45181
Regarding B3, in data set [2], the Km was determined as 190 ± 52 µM and the kcat came out at 2.8 ± 0.5 s⁻¹.

Broadly, the Km is the substrate concentration at which the rate is half of its maximum. The term kcat denotes the number of substrate molecules converted per active site and unit of time at saturation.
